The values that follow come from the supplement of paper PMC9170038.

The data set has as its system MS2 coat protein. Put plainly: apparent KD of MS2 coat protein; designed switch direction (-1 OFF switch, 1 ON switch): -1; higher = weaker reporter binding. The method, boiled down:
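An oligonucleotide input, 200 uM small-molecule ligand, or no input was present during titration of SNAP-549-labelled MS2 coat protein, which was doubled from 0.7 or 1.5 nM to 3 µM. Designed RNA switches had been transcribed on Illumina chips by stalled E. coli RNA polymerase. Apparent KD per design is the median over clusters of curves fitted to normalised cluster fluorescence.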

Where [1] appears, read: Eterna round: R95, input ligand: FMN 200 uM.
Where [2] appears, read: Eterna round: R95, input ligand: none.
[3] abbreviates: input ligand: microRNA oligo, concentration not stated.
[4] abbreviates: Eterna round: R95, input ligand: microRNA oligo, concentration not stated.

Turning to “CGUAUGUGAGGAUAUGGUCUCGAUGACAUGAGGAUCACCCAUGUAACAUGGGACUUGUGACUAGAAGGCACUAACG [JR_Ex5_Sub023] (Eterna round: R97, puzzle: Exclusion 5)”, the “apparent KD of MS2 coat protein” value reads like this: (input ligand: FMN 200 uM) 29.1 nM; (input ligand: none) 17.4 nM.
Turning to “UAUUAGCAAGCAAGGUCCCACAUGAGGAUCACCCAUGUGCUCGUCUUAUAAGGUACUGUGACGAAAGUCACGGUACC [Sensor 3, v1 - 92] (puzzle: Sensor v3, turn-off variant 1)”, the “apparent KD of MS2 coat protein” value under setting [1] turned out to be 46.6 nM and the “apparent KD of MS2 coat protein” value under setting [2] came out at 53.1 nM.
“AAGGGUACUUUCGGAACGACAUGAGGAUCACCCAUGUAUACUGAGGAUAUCUACUACUAAGGACGGGAGAAGGCAGUGUAAUGU [Ex NG3 #77] (Eterna round: R96, puzzle: Exclusion NG 3)”: under setting [3], the “apparent KD of MS2 coat protein” value was 13.6 nM.
Take “UCUAUUUUGCGAGGAUAUCGACCAUUCCUCUUUACAUGAGGAUCACCCAUGUUCUUUUUCUACAACGAGAAGGCGCUCUAAGUU [JR_ExcNG2_Sub061] (Eterna round: R96, puzzle: Exclusion NG 2)”: the “apparent KD of MS2 coat protein” value is, setting by setting: (input ligand: FMN 200 uM) 71.9 nM; under setting [3], 65 nM; (input ligand: none) 59.1 nM.
The corresponding values for “AUAAAUCAUGUAGGAUAUGCAUAGCAAAGCUAUGCAGAAGGACAUGAGGAUCACCCAUGUCAUUCCGUCUGGAGACAGACGGGA [Mat - Exclusion NG 1 - Mod of JL - D57] (Eterna round: R96, puzzle: Exclusion NG 1)” are 129 nM, 26.4 nM and 32 nM.
For “UCUCCCUGGCAAGGAUAUCCUGUGCGGUUCCGGCUCGUGUCUGUUACAUGAGGAUCACCCAUGUGGGAGAAGGUGCCUGUGGCU [Design 92] (Eterna round: R96, puzzle: Exclusion NG 2)”, the “apparent KD of MS2 coat protein” value by setting is: (input ligand: FMN 200 uM) 346 nM; under setting [3], 93.7 nM; (input ligand: none) 143 nM.
In the case of “AGAGAAUACUCAGGAUAUCUGAAUAGAUAGAGAAGAGAAGGGAGACAUGAGGAUCACCCAUGUGAAGUCUUGAGGCUGCAUGGA [Prohibition 24 - Jieux - Exclusion NG 1] (Eterna round: R96, puzzle: Exclusion NG 1)”, the “apparent KD of MS2 coat protein” value is, setting by setting: (input ligand: FMN 200 uM) 165 nM; under setting [3], 85.6 nM; (input ligand: none) 209 nM.
With “UGUACUAACACGAAAGUGUUAGUACAAUAAGCUUGUGUUACAUGAGGAUCACCCAUGUCCUCAUAAGCUCGUCUUAU [Mat - Sensor v3 - Turn-off var 2 - D51] (puzzle: Sensor v3, turn-off variant 2)”, the “apparent KD of MS2 coat protein” value runs as follows: under setting [1], 88.2 nM; under setting [4], 52.3 nM; under setting [2], 99.2 nM.
The corresponding values for “GGUUGGCGAGGAUAUACAUGAGGAUCACCCAUGUGAGAGAAAAUAGUGAGGAAGAAAAGUAGAAGGCGCUGACG [salish99_ex3_r3_014] (puzzle: Exclusion 3)” are 98.1 nM, 47.7 nM and 37.5 nM.
As to “CUGAUGUUAGGAUAUCAGGCGCCCGCCACUGGCAAGGCGCAUGAGAAGGGACAUGAGGAUCACCCAUGUAGUAA [Maquraan] (puzzle: Exclusion 4)”, the “apparent KD of MS2 coat protein” value under setting [4] is 21.5 nM.
On to “AGAGUGCUGCGAGGAUAUACAUGAGGAUCACCCAUGUGGUCCUGUGAGGCAAAGCCUCACAGGAUGUAGAAGGCGCAGUACUCA [Mat - Exclusion NG 2 - Mod of JL - D46] (Eterna round: R96, puzzle: Exclusion NG 2)”, for which the “apparent KD of MS2 coat protein” value runs as follows: (input ligand: FMN 200 uM) 57 nM; under setting [3], 14.2 nM; (input ligand: none) 19.9 nM.
With “AAGUACCGUCACGAUAGUGAUGGUACAGCAAGCAAAUGUACAUGAGGAUCACCCAUGUCCUCUUUUGCUCGUCUUAU [Sensor 3 - 98] (puzzle: Sensor v3, turn-off variant 2)”, the “apparent KD of MS2 coat protein” value runs as follows: under setting [1], 49.1 nM; under setting [4], 31.1 nM; under setting [2], 53.2 nM.
Take “UAAUAACAAGCGAGAUCCUACAUGAGGAUCACCCAUGUGCUCGUCUUAUAAGGUACUGUGACGAUAGUCACGGUACC [Mat - Sensor, turn-off var - Eli Mod - D96] (Eterna round: R97, puzzle: Sensor, turn-off variant 1)”: the “apparent KD of MS2 coat protein” value (input ligand: FMN 200 uM) is 17.8 nM and the “apparent KD of MS2 coat protein” value (input ligand: none) was 18.2 nM.
Regarding “GCAGCAUAGUCGGAAACGACAGAACAUGAGGAUCACCCAUGUCAGGAUAUGGUCUGGAUUACAGGCCAGAAGGGACAAAGCUGC [Eli exng3 - 008] (Eterna round: R96, puzzle: Exclusion NG 3)”, the “apparent KD of MS2 coat protein” value is, setting by setting: (input ligand: FMN 200 uM) 19.6 nM; under setting [3], 14.1 nM; (input ligand: none) 19.8 nM.
Take “AAACGGCGGAUCGUGGCUUUUUGCUCGUCUUGUGCUUCGACAUGAGGAUCACCCAUGUGGUGGUGAUCCGUUGUAAA [Grok-var2-16 mod JAL] (puzzle: Sensor v3, turn-off variant 2)”: the “apparent KD of MS2 coat protein” value reads like this: under setting [1], 58.6 nM; under setting [4], 15.8 nM; under setting [2], 83.5 nM.
With “GGGCUAGAAGGAGGAUAUUGAAGAUCCUCACGACAUGAGGAUCACCCAUGUGGUUUAGCAAGGGCCAAGAAGGCCUAUAGCCCA [Zasoan] (Eterna round: R96, puzzle: Exclusion NG 2)”, the “apparent KD of MS2 coat protein” value (input ligand: FMN 200 uM) worked out at 111 nM, the “apparent KD of MS2 coat protein” value under setting [3] came out at 52.1 nM and the “apparent KD of MS2 coat protein” value (input ligand: none) amounted to 77.3 nM.
With “AAUGUCUGAGGAUAUCGAAUAGUGUACAUGAGGAUCACCCAUGUUUUUAUUAGUAUAUUACGAGAAGGCAGUGGAA [JR_E5_Sub086] (puzzle: Exclusion 5)”, under setting [4], the “apparent KD of MS2 coat protein” value worked out at 16.1 nM.
Regarding “GUAGAGUGAGGAUAUACGAGAUCGAUAGAUCAACGAUCCAAACAUGAGGAUCACCCAUGUAGAAGGCACUCUAC [Mat - Exclusion 2 - Eli Mod - D8] (Eterna round: R97, puzzle: Exclusion 2)”, the “apparent KD of MS2 coat protein” value (input ligand: FMN 200 uM) came to 224 nM and the “apparent KD of MS2 coat protein” value (input ligand: none) amounted to 23.1 nM.
Taken in the same sequence, the figures for “ACAACCAGAGGAUAUGCGCAUAGAUCAGACUUUGUUUCUGAACAUGAGGAUCACCCAUGUAGAAGGCUGUAACC [Ex2 #79] (Eterna round: R97, puzzle: Exclusion 2)” were 27.7 nM and 28.7 nM.
On to “ACACAAAGCUAGGAUAUCCAGGCAUCUUCGGCCGGAGAAGGAGCCACAUGAGGAUCACCCAUGUGGUGAUCCUG [eternacac ex6r4 sub5] (Eterna round: R97, puzzle: Exclusion 6)”, for which the “apparent KD of MS2 coat protein” value is 70.9 nM (input ligand: FMN 200 uM) and 50.6 nM (input ligand: none).
On to “UUGCAGUCGUCAGGAUAUAGUAUUACGGCCAUUUAUAUUUUCAUACAUGAGGAUCACCCAUGUCGCUAGAAGGGAUUAUCGAUU [salish99_ExNG2_r04_101] (Eterna round: R96, puzzle: Exclusion NG 2)”, for which the “apparent KD of MS2 coat protein” value amounted to 49.7 nM (input ligand: FMN 200 uM), 40.4 nM under setting [3] and 53.4 nM (input ligand: none).
“GAAGCACAUGAGGAUCACCCAUGUGAGGAUAUCCGUCUGGUCCGGCCGGACCAGUACCGGAGAAGGCGCGUAAA [Excls1-Ia] (puzzle: Exclusion 1)”: the “apparent KD of MS2 coat protein” value under setting [4] was found to be 40.1 nM.
